{
  "source": "patent US20080286803A1",
  "about": "(NEDERLANDSE ORGANISATIE VOOR TOEGEPAST …, published 2008)",
  "binders": {"B1": {"name": "purified recombinant MASP-2 (active form) (enzyme, UniProt O00187 16-686, looked up)", "chain": "TPLGPKWPEPVFGRLASPGFPGEYANDQERRWTLTAPPGYRLRLYFTHFDLELSHLCEYDFVKLSSGAKVLATLCGQESTDTERAPGKDTFYSLGSSLDITFRSDYSNEKPFTGFEAFYAAEDIDECQVAPGEAPTCDHHCHNHLGGFYCSCRAGYVLHRNKRTCSALCSGQVFTQRSGELSSPEYPRPYPKLSSCTYSISLEEGFSVILDFVESFDVETHPETLCPYDFLKIQTDREEHGPFCGKTLPHRIETKSNTVTITFVTDESGDHTGWKIHYTSTAQPCPYPMAPPNGHVSPVQAKYILKDSFSIFCETGYELLQGHLPLKSFTAVCQKDGSWDRPMPACSIVDCGPPDDLPSGRVEYITGPGVTTYKAVIQYSCEETFYTMKVNDGKYVCEADGFWTSSKGEKSLPVCEPVCGLSARTTGGRIYGGQKAKPGDFPWQVLILGGTTAAGALLYDNWVLTAAHAVYEQKHDASALDIRMGTLKRLSPHYTQAWSEAVFIHEGYTHDAGFDNDIALIKLNNKVVINSNITPICLPRKEAESFMRTDDIGTASGWGLTQRGFLARNLMYVDIPIVDHQKCTAAYEKPPYPRGSVTANMLCAGLESGGKDSCRGDSGGALVFLDSETERWFVGGIVSWGSMNCGEAGQYGVYTKVINYIPWIENIISDF"}},
  "biological_target": "wild-type pro-urokinase (natural activation site Pro-Arg-Phe-Lys-Ile-Ile-Gly-Gly) (human, UniProt P00749 21-431)",
  "assay": "cell-based or functional assay",
  "data": [
    {"binder": "B1", "values": [
      {"measurement": "absorbance change at 405 nm (activation of pro-urokinase, read with pyro-Glu-Gly-Arg-pNA)", "value": "~2", "unit": "fold"}
    ]}
  ]
}
